Measured values from the supplement of paper PMC11246515.
± gives the standard deviation of the averaged measurements.

Experiment: total protein half-life in vivo (active degradation + dilution); higher = more stable protein
[1] = E. coli NCM3722 delta-clpP delta-lon delta-hslV, growth: N-lim chemostat, doubling time 6 h
[2] = E. coli NCM3722 delta-clpP, growth: N-lim chemostat, doubling time 6 h
[3] = E. coli NCM3722 delta-hslV, growth: N-lim chemostat, doubling time 6 h
[4] = E. coli NCM3722 delta-lon, growth: N-lim chemostat, doubling time 6 h
[5] = E. coli NCM3722 delta-smpB, growth: N-lim chemostat, doubling time 6 h
[6] = wild type E. coli NCM3722, growth: C-lim chemostat, doubling time 3 h
[7] = wild type E. coli NCM3722, growth: C-lim chemostat, doubling time 6 h
[8] = wild type E. coli NCM3722, growth: C-lim chemostat, doubling time 12 h
[9] = wild type E. coli NCM3722, growth: N-lim chemostat, doubling time 6 h
[10] = wild type E. coli NCM3722, growth: N-lim chemostat, doubling time 12 h
[11] = wild type E. coli NCM3722, growth: P-lim chemostat, doubling time 6 h
[12] = wild type E. coli NCM3722, growth: P-lim chemostat, doubling time 12 h

Row | Sequence | total protein half-life in vivo [1] [h] | total protein half-life in vivo [2] [h] | total protein half-life in vivo [3] [h] | total protein half-life in vivo [4] [h] | total protein half-life in vivo [5] [h] | total protein half-life in vivo [6] [h] | total protein half-life in vivo [7] [h] | total protein half-life in vivo [8] [h] | total protein half-life in vivo [9] [h] | total protein half-life in vivo [10] [h] | total protein half-life in vivo [11] [h] | total protein half-life in vivo [12] [h]
1 | MSKAGKITAAISGAFLLLIVVAIILIATFDWNRLKPTINQKVSAELNRPFAIRGDLGVVWERQKQETGWRSWVPWPHVHAEDIILGNPPDIPEVTMVHLPRVEATLAPLALLTKTVWLPWIKLEKPDARLIRLSEKNNNWTFNLANDDNKDANAKPSAWSFRLDNILFDQGRIAIDDKVSKADLEIFVDPLGKPLPFSEVTGSKGKADKEKVGDYVFGLKAQGRYNGEPLTGTGKIGGMLALRGEGTPFPVQADFRSGNTRVAFDGVVNDPMKMGGVDLRLKFSGDSLGDLYELTGVLLPDTPPFETDGRLVAKIDTEKSSVFDYRGFNGRIGDSDIHGSLVYTTGKPRPKLEGDVESRQLRLADLGPLIGVDSGKGAEKSKRSEQKKGEKSVQPAGKVLPYDRFETDKWDVMDADVRFKGRRIEHGSSLPISDLSTHIILKNADLRLQPLKFGMAGGSIAANIHLEGDKKPMQGRADIQARRLKLKELMPDVELMQKTLGEMNGDAELRGSGNSVAALLGNSNGNLKLLMNDGLVSRNLMEIVGLNVGNYIVGAIFGDDEVRVNCAAANLNIANGVARPQIFAFDTENALINVTGTASFASEQLDLTIDPESKGIRIITLRSPLYVRGTFKNPQAGVKAGPLIARGAVAAALATLVTPAAALLALISPSEGEANQCRTILSQMKK | 6.24 ± 0.57 | 5.9 ± 0.17 | 6.13 ± 0.039 | 6.42 ± 0.4 | 5.438 ± 0.026 | 3.09 ± 0.22 | 5.72 ± 0.19 | 10.9 ± 1.2 | 5.57 ± 0.16 | 10.9 ± 0.42 | 5.49 ± 0.3 | 9.41 ± 0.73
2 | MLVSKKPMVLVILDGYGYREEQQDNAIFSAKTPVMDALWANRPHTLIDASGLEVGLPDRQMGNSEVGHVNLGAGRIVYQDLTRLDVEIKDRAFFANPVLTGAVDKAKNAGKAVHIMGLLSAGGVHSHEDHIMAMVELAAERGAEKIYLHAFLDGRDTPPRSAESSLKKFEEKFAALGKGRVASIIGRYYAMDRDNRWDRVEKAYDLLTLAQGEFQADTAVAGLQAAYARDENDEFVKATVIRAEGQPDAAMEDGDALIFMNFRADRAREITRAFVNADFDGFARKKVVNVDFVMLTEYAADIKTAVAYPPASLVNTFGEWMAKNDKTQLRISETEKYAHVTFFFNGGVEESFKGEDRILINSPKVATYDLQPEMSSAELTEKLVAAIKSGKYDTIICNYPNGDMVGHTGVMEAAVKAVEALDHCVEEVAKAVESVGGQLLITADHGNAEQMRDPATGQAHTAHTNLPVPLIYVGDKNVKAVEGGKLSDIAPTMLSLMGMEIPQEMTGKPLFIVE | 5.19 ± 0.06 | 5.05 ± 0.79 | 5.19 ± 0.44 | 4.97 ± 0.22 | 4.458 ± 0.033 | 2.85 ± 0.1 | 5.58 ± 0.34 | 10 ± 1.6 | 4.76 ± 0.1 | 7.769 ± 0.048 | 5.1 ± 0.24 | 10.35 ± 0.034
3 | MSFFHASQRDALNQSLAEVQGQINVSFEFFPPRTSEMEQTLWNSIDRLSSLKPKFVSVTYGANSGERDRTHSIIKGIKDRTGLEAAPHLTCIDATPDELRTIARDYWNNGIRHIVALRGDLPPGSGKPEMYASDLVTLLKEVADFDISVAAYPEVHPEAKSAQADLLNLKRKVDAGANRAITQFFFDVESYLRFRDRCVSAGIDVEIIPGILPVSNFKQAKKFADMTNVRIPAWMAQMFDGLDDDAETRKLVGANIAMDMVKILSREGVKDFHFYTLNRAEMSYAICHTLGVRPGL [P0AEZ1] | 3.64 ± 0.65 | 3.18 ± 0.53 | 2.96 ± 0.52 | 3.54 ± 0.14 | 3.16 ± 0.31 | 2.99 ± 0.18 | 4.97 ± 0.25 | 8.59 ± 0.26 | 3.02 ± 0.1 | 4.47 ± 0.053 | 5.51 ± 0.12 | 10.7 ± 0.34
4 | MMQTVLAKIVADKAIWVEARKQQQPLASFQNEVQPSTRHFYDALQGARTAFILECKKASPSKGVIRDDFDPARIAAIYKHYASAISVLTDEKYFQGSFNFLPIVSQIAPQPILCKDFIIDPYQIYLARYYQADACLLMLSVLDDDQYRQLAAVAHSLEMGVLTEVSNEEEQERAIALGAKVVGINNRDLRDLSIDLNRTRELAPKLGHNVTVISESGINTYAQVRELSHFANGFLIGSALMAHDDLHAAVRRVLLGENKVCGLTRGQDAKAAYDAGAIYGGLIFVATSPRCVNVEQAQEVMAAAPLQYVGVFRNHDIADVVDKAKVLSLAAVQLHGNEEQLYIDTLREALPAHVAIWKALSVGETLPAREFQHVDKYVLDNGQGGSGQRFDWSLLNGQSLGNVLLAGGLGADNCVEAAQTGCAGLDFNSAVESQPGIKDARLLASVFQTLRAY | 4.8 ± 0.34 | 4.62 ± 1 | 4.15 ± 0.2 | 5.01 ± 0.64 | 4.1 ± 0.18 | 2.91 ± 0.1 | 4.97 ± 0.14 | 7.713 ± 0.011 | 4 ± 0.086 | 6.392 ± 0.053 | 4.9 ± 0.078 | 9.51 ± 0.49
5 | MSEPLLIARTPDTELFLLPGMANRHGLITGATGTGKTVTLQKLAESLSEIGVPVFMADVKGDLTGVAQAGTVSEKLLARLKNIGVNDWQPHANPVVVWDIFGEKGHPVRATVSDLGPLLLARLLNLNDVQSGVLNIIFRIADDQGLLLLDFKDLRAITQYIGDNAKSFQNQYGNISSASVGAIQRGLLSLEQQGAAHFFGEPMLDIKDWMRTDANGKGVINILSAEKLYQMPKLYAASLLWMLSELYEQLPEAGDLEKPKLVFFFDEAHLLFNDAPQVLLDKIEQVIRLIRSKGVGVWFVSQNPSDIPDNVLGQLGNRVQHALRAFTPKDQKAVKAAAQTMRANPAFDTEKAIQELGTGEALISFLDAKGSPSVVERAMVIAPCSRMGPVTEDERNGLINHSPVYGKYEDEVDRESAYEMLQKGFQASTEQQNNPPAKGKEVAVDDGILGGLKDILFGTTGPRGGKKDGVVQTMAKSAARQVTNQIVRGMLGSLLGGRRR | 5.04 ± 0.57 | 4.98 ± 0.19 | 5.1 ± 0.27 | 5.07 ± 0.26 | 4.73 ± 0.25 | 3.263 ± 0.025 | 5.39 ± 0.34 | 9.77 ± 0.81 | 4.77 ± 0.15 | 8.27 ± 0.62 | 5.66 ± 0.28 | 9.88 ± 0.78
